The text below walks through data of patent US20240075137A1 (COMPUGEN, published 2024).

Assay [1] has as its target T1, Mouse TIGIT-His (mouse, UniProt P86176).
T1 construct: also called mouse TIGIT monomer (prepared in-house)
T1 sequence (soluble monomer with His tag, looked up): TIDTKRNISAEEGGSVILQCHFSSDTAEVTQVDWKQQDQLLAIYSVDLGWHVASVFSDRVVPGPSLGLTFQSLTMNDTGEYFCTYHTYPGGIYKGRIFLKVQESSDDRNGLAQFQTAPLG
Put plainly: SPR (ProteOn), mAb captured, mouse TIGIT monomer injected; BM29 as hIgG4.

In assay [2] the target is T2, cyno TIGIT on cells (cynomolgus macaque).
T2 construct: whole, on cells; also called Expi293 cyno TIGIT over-expressing cells
The assay can be described thus: FACS titration on cyno TIGIT OE Expi293 cells, binding site concentration; ± 95% CI; 'Fit: Good/Excellent'.
Experimental: (§1) AF647-labeled goat anti-human F(ab′) (Jackson Immunoresearch) was added to the cells to detect binding of anti-TIGIT antibodies. The gMFI of the anti-TIGIT antibodies bound to the cyno TIGIT over-expressing Expi293 cells (black line), and the parental Expi293 cells (grey line) are shown.

The target of assay [3] is T3, human TIGIT on cells (human, UniProt Q495A1 22-141).
T3 construct: also called Expi293 human TIGIT over-expressing cells
T3 sequence: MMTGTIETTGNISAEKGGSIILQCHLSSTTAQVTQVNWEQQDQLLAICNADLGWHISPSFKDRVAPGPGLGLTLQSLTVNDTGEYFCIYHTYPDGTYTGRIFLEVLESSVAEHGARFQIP
Put plainly: FACS titration on human TIGIT OE Expi293 cells, binding site concentration; ± 95% CI; 'Fit: Excellent'.
Experimental: (§2) AF647-labeled goat anti-human F(ab′) (Jackson Immunoresearch) was added to the cells to detect binding of anti-TIGIT antibodies.

Assay [4] deals with T3, human TIGIT on cells. The assay can be described thus: FACS titration of AF647-labelled mAb on human effector memory CD8+ T cells, Donor 322.
Assay [5] addresses T3, human TIGIT on cells. The assay can be described thus: FACS titration of AF647-labelled mAb on human effector memory CD8+ T cells, Donor 321.
Assay [6] concerns the target T3, human TIGIT on cells. Put plainly: FACS blocking of human PVR-m2aFc binding to human TIGIT OE Expi293 cells; binding site concentration; n=1.
Assay [7] addresses T4, human TIGIT ECD with C-terminal polyhistidine tag (human, UniProt Q495A1 22-141).
T4 construct: in-house or Sino Biological; also called hTIGIT-HIS; human TIGIT-HIS
T4 sequence: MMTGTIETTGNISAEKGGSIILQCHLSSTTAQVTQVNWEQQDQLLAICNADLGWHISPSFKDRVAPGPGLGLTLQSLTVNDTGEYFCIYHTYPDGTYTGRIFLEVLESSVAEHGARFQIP
Put plainly: SPR (ProteOn), mAb captured, human TIGIT injected; BM29 as hIgG4.

In assay [8] the target is T3, human TIGIT on cells. Put plainly: FACS titration of AF647-labelled mAb on human effector memory CD8+ T cells, Donor 334.
In assay [9] the target is T4, human TIGIT ECD with C-terminal …. Put plainly: SPR (ProteOn), Human TIGIT-His.
The target of assay [10] is T5, Cyno TIGIT-His.
T5 construct: also called cyno TIGIT monomer (prepared in-house); C-terminal HIS-tagged cyno TIGIT ECD recombinant protein
T5 sequence (ECD with C-terminal His tag, as listed by the source): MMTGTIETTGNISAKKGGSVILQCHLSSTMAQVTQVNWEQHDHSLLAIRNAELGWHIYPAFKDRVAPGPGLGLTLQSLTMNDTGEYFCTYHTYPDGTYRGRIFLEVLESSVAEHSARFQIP
Put plainly: SPR (ProteOn), Cyno TIGIT-His.

In assay [11] the target is T3, human TIGIT on cells. Put plainly: FACS blocking of human PVR-m2aFc binding to human TIGIT OE Expi293 cells; binding site concentration; n=2.
In assay [12] the target is T4, human TIGIT ECD with C-terminal …. The assay can be described thus: KinExA equilibrium, His-tagged human TIGIT, n = 1.
Experimental: (§3) KinExA equilibrium experiments were performed using a KinExA 3200 instrument (Sapidyne Instruments, Boise, ID, USA) at 22° C. Recombinant His-tagged human TIGIT was obtained from Sino Biologicals (Beijing, China) and reconstituted into 1×PBS. All antigen and antibody samples for KinExA analyses were prepared in degassed PBST buffer (PBS with 0.05% tween 20) with 100 ug/mL filtered BSA and 0.02% sodium azide. […] For each KinExA experiment, ˜20 lag of human TIGIT was diluted into 1 mL of 50 mM sodium carbonate, pH 9.2 which was added directly to 50 mg of azlactone beads (Ultralink Support, Thermo Scientific, Rockford, IL, USA) and rocked overnight at 4° C. After rocking, the beads were rinsed once with 1 M Tris buffer, pH 8.5, containing 10 mg/mL BSA and rocked for one hour at room temperature in the same buffer. Coupled beads were added to the bead reservoir in the KinExA instrument and diluted to ˜30 mL with 1×HBS-N (0.01 M Hepes, 0.15M NaCl, GE Healthcare) containing 0.02% sodium azide which was also the running buffer for the KinExA instrument. All antigen-coupled beads were used immediately after preparation.
(§4) The volume flowed through the bead pack for each equilibrated sample for all experiments ranged from 4 mL to 11 mL at a flow rate of 0.25 mL/min.
Assay [13] addresses T3, human TIGIT on cells. Put plainly: FACS titration on human TIGIT OE Expi293 cells, binding site concentration; ± 95% CI; 'Fit: Good/Excellent'; panel of the lower row.
Experimental: as §2
The target of assay [14] is T5, Cyno TIGIT-His. The assay can be described thus: SPR (ProteOn), mAb captured, cyno TIGIT monomer injected; kd of this row held constant; BM26 as hIgG4.
Assay [15] concerns the target T4, human TIGIT ECD with C-terminal …. The assay can be described thus: KinExA equilibrium, His-tagged human TIGIT, n = 2. For orientation: Kinetic exclusion samples the free partner from a solution-phase mixture.
Experimental: as §3, §4
Assay [16] shares this target. Put plainly: SPR (ProteOn), mAb captured, human TIGIT injected; BM26 as hIgG4.
The target in assay [17] is T2, cyno TIGIT on cells. Put plainly: FACS titration of AF647-labelled mAb on cyno effector memory CD8+ T cells, Cyno Donor 1; isotype gMFI subtracted.
The target of assay [18] is T3, human TIGIT on cells. Put plainly: FACS titration on human TIGIT OE Expi293 cells, binding site concentration; ± 95% CI; 'Fit: Good/Excellent'; panel of the upper row.
Experimental: as §2
For assay [19], the target named is T2, cyno TIGIT on cells. Put plainly: FACS titration of AF647-labelled mAb on cyno effector memory CD8+ T cells, Cyno Donor 3; isotype gMFI subtracted.
For assay [20], the target named is T1, Mouse TIGIT-His. The assay can be described thus: SPR (ProteOn), mAb captured, mouse TIGIT monomer injected; BM26 as hIgG4.
The target in assay [21] is T3, human TIGIT on cells. Put plainly: FACS blocking: Expi293 human TIGIT cells pre-incubated with mAb, then human PVR-m2aFc; lower gMFI = more blocking.
Assay [22] has as its target T2, cyno TIGIT on cells. The assay can be described thus: FACS titration on cyno TIGIT OE Expi293 cells, binding site concentration; ± 95% CI; 'Fit: Good'; panel of the lower row.
Experimental: as §1
In assay [23] the target is T2, cyno TIGIT on cells. Put plainly: FACS titration on cyno TIGIT OE Expi293 cells, binding site concentration; ± 95% CI; 'Fit: Excellent'; panel of the upper row.
Experimental: as §1
The next assay has as its target T6, mPVRL2 HIS (mouse, UniProt P32507 32-351, limits assumed).
T6 construct: also called mPVRL2 protein; Soluble PVRL2 HIS protein
T6 sequence (looked up): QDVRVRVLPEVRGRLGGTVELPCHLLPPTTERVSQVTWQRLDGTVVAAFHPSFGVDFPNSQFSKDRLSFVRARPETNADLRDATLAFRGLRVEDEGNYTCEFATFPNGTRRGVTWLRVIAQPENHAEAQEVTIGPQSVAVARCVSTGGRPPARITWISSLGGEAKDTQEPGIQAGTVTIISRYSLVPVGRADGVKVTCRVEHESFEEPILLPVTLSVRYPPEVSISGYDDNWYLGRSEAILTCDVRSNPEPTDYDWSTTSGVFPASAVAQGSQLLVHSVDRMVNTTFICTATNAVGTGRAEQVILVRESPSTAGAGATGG
Put plainly: ELISA: soluble receptor Fc titrated on immobilized mPVRL2 HIS.

B1: BM29 hIgG4 (antibody, V domains shown)
VH: QVHLQESGPGLVKPSETLSLTCTVSGGSVSSGIYYWSWIRQPPGKGLEWIGYIYYSGSTNYNPSLKSRVTISVDTSKNQFSLKLSSVTAADTAVYYCARDYYVSGNYYNVDYYFFGVDVWGQGTTVTVSS
VL: EIVLTQSPATLSLSPGERATLSCRASQSVSSYLAWYQQKPGQAPRLLIYDASNRATGIPARFSGSGSGTDFTLTISSLEPEDFAVYYCQQRSNWPPLFTFGPGTKVDIKR
notes: benchmark anti-human TIGIT antibody, human IgG4 with S241P; also called BM29-H4; US2016/0176963A1 Clone 22G2 as hIgG4
Regarding B1, the binding result in the assay with Mouse TIGIT-His [1] was “no binding (tested: 92.9 nM mouse TIGIT)”. The Kd is 1.67 nM with cyno TIGIT on cells [2]; 1.53 nM with human TIGIT on cells [3]; 0.91 nM in the assay with human TIGIT on cells [4]; 0.88 nM with human TIGIT on cells [5]; 0.015 nM in assay [7]; 0.59 nM in the assay with human TIGIT on cells [8]. The values for the Kd (in [9]; with Cyno TIGIT-His [10]) were 0.011 nM and 1.54 nM, respectively. The IC50 in the assay with human TIGIT on cells [6] was 1 nM; in the assay with human TIGIT on cells [11] it was 0.5 nM.

B2: BM26 hIgG4 (antibody, V domains shown)
VH: EVQLQQSGPELVKPGSSVKMSCKASGYTFSSYVMHWVKQKPGQGLEWIGYIDPYNDGAKYNEKFKGKATLTSDKSSSTAYMELSSLTSEDSAVYYCARGGPYGWYFDVWGAGTTVTVSS
VL: DIQMTQSPASLSASVGETVTITCRASEHIYSYLSWYQQKQGKSPQLLVYNAKTLAEGVPSRFSGSGSGTQFSLKINSLQPEDFGTYYCQHHFGSPLTFGAGTTLELKR
notes: benchmark anti-human TIGIT antibody, human IgG4 with S241P; also called BM26-H4; WO2016/028656A1 Clone 3106 as hIgG4
Take B2: the Kd was 0.0082 nM in assay [12]; 0.74 nM with human TIGIT on cells [13]; 0.00125 nM with Cyno TIGIT-His [14]; 0.0112 nM in assay [15]; 1.4 nM with human TIGIT on cells [4]; 0.0241 nM in assay [16]. The Kd with cyno TIGIT on cells [17] is 4.6 nM; with human TIGIT on cells [5], 0.93 nM; in the assay with human TIGIT on cells [18] it was 0.44 nM; with cyno TIGIT on cells [19] it was 7.5 nM; with human TIGIT on cells [8], 0.81 nM; in assay [9], 0.004 nM. For the same molecule, the Kd with Cyno TIGIT-His [10] came to 0.0035 nM; with cyno TIGIT on cells [22] it was 1.12 nM; with cyno TIGIT on cells [23], 0.69 nM. Also, the values for the IC50 with human TIGIT on cells [6] and in the assay with human TIGIT on cells [11] were 0.45 nM and 0.26 nM, respectively. The binding result in the assay with Mouse TIGIT-His [20] is “no binding (tested: 92.9 nM mouse TIGIT)”. Besides, the “gMFI of bound PVR-m2aFc at 266 pM mAb” value with human TIGIT on cells [21] was 719. Also, in the assay with human TIGIT on cells [21], the “gMFI of bound PVR-m2aFc at 1.3 nM mAb” value came to 401. Moreover, the “gMFI of bound PVR-m2aFc at 6.7 nM mAb” value with human TIGIT on cells [21] turned out to be 234.

B3: TIGIT Fc (Fc fusion, UniProt P86176 29-148, looked up)
fusion chain: TIDTKRNISAEEGGSVILQCHFSSDTAEVTQVDWKQQDQLLAIYSVDLGWHVASVFSDRVVPGPSLGLTFQSLTMNDTGEYFCTYHTYPGGIYKGRIFLKVQESSDDRNGLAQFQTAPLG
notes: receptor part of an Fc fusion; Soluble receptor Fc tested on immobilized mPVRL2 HIS
On to B3, for which the binding result in the assay with mPVRL2 HIS is given as “no binding (tested: about 200 nM)”.

Usually Kd stands for a measure of binding affinity in units of concentration. The low end stands for a tighter complex, the high end for a looser complex. As usually defined, the IC50 is the concentration needed to halve the response being measured. A higher IC50 goes with lower potency.
